Experimental data: the nanobody polyreactivity screen of Harvey et al. (2022)

Assay: yeast display, Sf9 membrane polyspecificity reagent, FACS + sequencing; frameworks hold sequencing errors
Procedure, shortened: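 Synthetic nanobody libraries on Saccharomyces cerevisiae BJ5465 were galactose-induced for 36–48 hours, stained 1 hour at 4 °C with 10% biotinylated, detergent-solubilized Sf9 membrane reagent and enriched on streptavidin microbeads. FACS then separated cells into low and high (top ~1%) gates by anti-HA (expression) and streptavidin (reagent binding) fluorescence. Genes were colony-PCR amplified, MiSeq 2 × 250 sequenced and CDR-length filtered. A clone's polyreactivity label is that of its gate of origin.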

Row | Sequence | polyreactivity (PSR sort gate)
1 | QVQLVESGGGLVQAGGSLRLSCAASGFTFITNAMGWYRQAPGNERELVASISIGGSTNYADSVKGRFTISRDNAKNTVYLQMTSLKPEDTAVYYCAARVYRRLFLPGRYGRPLGYWGQGTQVTVSS | high polyreactivity
2 | QVQLVESGGGLVQAGGSLRLSCAASGFTFITYAMGGHRQAPGKERELVAAIRTGGGTNYADSVKGRFTISRDNAKNTVYLQMNSLKPEDTAVYYCAKGRQGVSYLTGTYGCRYYWGQGTQVTVSS | low polyreactivity
3 | QVQLVESGGGLVQAGGSLRLSCAASGFTFKENTIGRYRQAPGKEMELVAAMSWSGGGTYYADSVKGRFTISRDNGKNTVYLQMNSLKPEDTAVYYCAALQRRDHNGDYWGQGTQVTVSS | low polyreactivity
4 | QVQLVESGGGLVQAGGSLRLSCAASGFTFKFNAMGWYRQAPGKERELVAAISYSGGSTYYADSVKGRFTISRDIAKNTVYVQMNSLKPEDTAVYYCAARAYWYGASYYYWGQGTQVTVSS | high polyreactivity
5 | QVQLVESGGGLVQAGGSLRLSCAASGFTFKFNTMGWYRQAPGKERELVAAISWRGGDTSYADSVKGRFTISRDNAKNTVYLQMNSLKPEDTAVYYCAASPRYPYWYDYWGQGTQVTVSS | low polyreactivity
6 | QVQLVESGGGLVQAGGSLRLSCAASGFTFKGNAMGWYRQAPGKERELVAGISRSGRTYYADSVKGRFTISRDNAKNTVYLQMNSLKPEDTAVYYCNARNQGWASLPTMGYWGQGTQVTVSS | high polyreactivity
7 | QVQLVESGGGLVQAGGSLRLSCAASGFTFKGNAMGWYRQAPGKERELVATITQSAGSTYYADSVKGRFTISRDNAKNTVYLQMNSLKPEDTAVYYCAAYLSETRPYLYDYWGQGTQVTVSS | low polyreactivity
8 | QVQLVESGGGLVQAGGSLRLSCAASGFTFKKYAMGWSRQAPGKERELVASITWSGGSTSYADSVKGRFTISRDNAKNSVYLQMNSLKPEDTAVFYCAAATFVYRLGYNRFDYWGQGTQVTVSS | high polyreactivity
9 | QVQLVESGGGLVQAGGSLRLSCAASGFTFKLNAMGWYRQAPGKERELVAAISWGGGTTYYADSVKGRFTISRDNAKNTVYLQMNSLKPEDTAVYYCAADGTGTYDYWGQGTQVTVSS | low polyreactivity
10 | QVQLVESGGGLVQAGGSLRLSCAASGFTFKLYAMGWYRQAPGKERELVAAISSSGGRTYYADSVKGRFTISRDNAKNTVYLQMNSLKPEDTAVYYCNAVRTVNDYHYDYWGQGTQVTVSS | high polyreactivity
11 | QVQLVESGGGLVQAGGSLRLSCAASGFTFKLYAMGWYRQSPGKVRELVAAISSSGGRTYYADSVKGRFTISRDNAKYTVYLQMNSLKPEDTAVYYCNAVRTVNDYHYDYWGQGSQVTVSS | high polyreactivity
12 | QVQLVESGGGLVQAGGSLRLSCAASGFTFKRNAMGWYRQAPGKERELVASITSRGGSTDYADSVKGRFTISRDNAKNTVYLQMNSLKPEDTAVYYCAAVKYVVYYRSDYWGQGTQVTVSS | high polyreactivity
13 | QVQLVESGGGLVQAGGSLRLSCAASGFTFKRYAMGWFRQAPGKERELVSTITSRGGSTYYADSVKGRFTISRDNAKNTVYLQMNSLKPEDTAVYYCVRRYPGLPGWSSYGSYESGYWGQGSQVTVSS | high polyreactivity
14 | QVQLVESGGGLVQAGGSLRLSCAASGFTFKYNAMGWYRQAPGKERELVAAISSSGSTNYADSVKGRFTISRDNAKNTVYLQMNSLKPEDTAVYYCAARWRSVLAAGTRPVSFDYWGQGTQVTVSS | low polyreactivity
15 | QVQLVESGGGLVQAGGSLRLSCAASGFTFKYNAMGWYRQAPGKERELVAAITASGGSTRYADSVKARFTISRDNAKNTVYLQMNSLKPEDTAVNYCAARKWFPRYSASPRSHGPYDYWGLGTQVTVSS | high polyreactivity
16 | QVQLVESGGGLVQAGGSLRLSCAASGFTFKYNAMGWYRQAPGKERELVASISSGSTNYADSVKGRFTISRDNAKNTVYLQMNSLKPEDTAVYYCAASVSRGKRFRYGYVFKLDYWGQGTQVTVSS | low polyreactivity
17 | QVQLVESGGGLVQAGGSLRLSCAASGFTFKYYAMGWYRQAPGKERELVAAISSRGGSTYYADSVKGRFTISRDKAKNTVYLQMNSLKPEDTAVYYCAAYYRTGSIWYAIFSDDYWGQGTQVTVSS | high polyreactivity
18 | QVQLVESGGGLVQAGGSLRLSCAASGFTFKYYAMGWYRQAPGKERELVAAITKRGGSTYYADSVKGRFTISRDNAKNTVYLQMNSLKPEDTEVYYCAAYYKSTYVPGDYWGQGTQVTVSS | high polyreactivity
19 | QVQLVESGGGLVQAGGSLRLSCAASGFTFKYYAMGWYRQAPGKERELVARISWSGGSTYYADSVKGRFTISRDNAKNTFFLQMNSLKPEDTAVYYCNTDFGYGFDYWGQGTQVSVSS | high polyreactivity
20 | QVQLVESGGGLVQAGGSLRLSCAASGFTFKYYAMGWYRQAPGKERELVATITSGGRTNYADSVKGRFTISRDNAKNTVYLQMNSLKPEDTAVYYCATPYSAYWQNERDYWGQGTQVTVSS | high polyreactivity
21 | QVQLVESGGGLVQAGGSLRLSCAASGFTFKYYDMGWYRQAPGKERELVAAIDTSGGNTYYADSVKGRFTISRDYAKNTVYLQMNSLKPEDTAVYYCAATVPYYHDDYWGQGTQVTVSS | low polyreactivity
22 | QVQLVESGGGLVQAGGSLRLSCAASGFTFKYYVMGWYRQAPGKERELVASISKRGGSTRYADSVKGRFTISLDNAKNTVYLQMNSLKPEDTAVYYCAAEYWYYWEYEYWGQGTQVTVSS | high polyreactivity

Row | Sequence | polyreactivity (PSR sort gate)
23 | QVQLVESGGGLVQAGGSLRLSCAASGFTFLAYPMGRYRQAPGKERELVAAISKSGGSTYYADSVKGRFTISRDNAKITVYLQMNSLKPDDTAVYYSNAGRRIKFYGSYDYWGQGSQVTVSS | high polyreactivity
24 | QVQLVESGGGLVQAGGSLRLSCAASGFTFLDYALGWYIQAPGKERELVASISSSGGSTRYADSVKGRFTISRDNAKNTVYLQMNSLKPEDTAVYYCNAQIAEVPNDYWGQGPQVTVSS | low polyreactivity
25 | QVQLVESGGGLVQAGGSLRLSCAASGFTFLIYAMGWYRQAPGKERELVAAITWRGSGTYYADSVKGRFTLSRDNAKNTVYLQMNSLKPEDTAVYYCAARTARRTFDYWGQGTQVTVSS | low polyreactivity
26 | QVQLVESGGGLVQAGGSLRLSCAASGFTFLPAYAMGWYRQAPGKERELVAAITRGGSTYYADSVKGRFTISRDNAKNTVYLQMNSLKPEDTAVYYCNADQKFGFYRSVGDDYWGQGTQVTVSS | low polyreactivity
27 | QVQLVESGGGLVQAGGSLRLSCAASGFTFLRNAMGWYRQAPGKERELVATISTSGGSTYYADSVKGRFTISRDNAKITVYLQMNSLKPEDTAVYYCAKRYRTRDSGYDYWGQGTQVTVSS | high polyreactivity
28 | QVQLVESGGGLVQAGGSLRLSCAASGFTFLRYAMGWYRQAPGKESELVAAISTSGGSTSYADSVKGRFTISRDNAKNTVYLQMNSLKPEDTAVYYCNAVLYKVSISEYDYWGQGTQVTVSS | high polyreactivity
29 | QVQLVESGGGLVQAGGSLRLSCAASGFTFLSYTMGWYRQEPGKERELVASITASGTRTYYADSVKGRFTISRDNAKNTVYLQMNSLKPDDTAVYYCAARRSGSGSHDYGYWGQGTQVTVSS | low polyreactivity
30 | QVQLVESGGGLVQAGGSLRLSCAASGFTFNAMGWYRQAPGKERELVARIDSDDTTNYADSVKGRFTISRDNAKNTVYLQMNSLKPEDTAVYYCNKDYAWLSYQHYDYWGQGTQVTVSS | low polyreactivity
31 | QVQLVESGGGLVQAGGSLRLSCAASGFTFNDYAMGWYRQAPGKERELVAAIDWSGGRTYYADSVKGRFTISRDNAKNTVYVQMNSLKPEDTAVYYCAAVLYSRLYWYRLDYWGQGTQVTVSS | low polyreactivity
32 | QVQLVESGGGLVQAGGSLRLSCAASGFTFNEYAMGWYRQAPGKERELVAAITWGGASTYYADSVKGRFTISRDNAKNTVYLQMNSLKPEDTAVYYCVFVYVYDYYYWGQGTQVTVSS | high polyreactivity
33 | QVQLVESGGGLVQAGGSLRLSCAASGFTFNFNAMGCYIQAPGKERELLAAIRYRGGSTNYADSVKGSFTISRDNAKNTVYVMMNSLKPEDTAVYYCNVYYYRTYSHVLPGYEYWGQGTQVPVSS | high polyreactivity
34 | QVQLVESGGGLVQAGGSLRLSCAASGFTFNNYAMGWYRQAPGKERELVAAISSGAGTYYADSVKGRFTISRDNAKNTVYLQMNSLKPEDTAVYYCNASLKYQGRTRITYRDDYWGQGTQVTVSS | low polyreactivity
35 | QVQLVESGGGLVQAGGSLRLSCAASGFTFNPYAMGWYRQAPGKERELVAAITSGGSTNYADSVKGRFTISRDNAKNTVYLQMNSLKPEDTAVYYCAADSRGYGDDSWGQGTKVTVSS | low polyreactivity
36 | QVQLVESGGGLVQAGGSLRLSCAASGFTFNQYAMGWYRQAPGKERELVAAITGSGGSTYYADSVKGRFTISRDNAKNTVYLQMNSLKPEDTAVYYCNRDRFSRFYWGQGTQVTVSS | high polyreactivity
37 | QVQLVESGGGLVQAGGSLRLSCAASGFTFNRYAMGWYRQAPGKERELVAAISARGGITYYADSVKGRFTISRDNAKNTVYLQMNSLKPEDTAVYYCNKRYSSWSGEHDYWGQGTQVTVSS | high polyreactivity
38 | QVQLVESGGGLVQAGGSLRLSCAASGFTFNRYTMGWYRQAPGKERELVASISVRGSRTYYADSVKGRFTISRDNAKNTVYLQMNSLKPEDTAVYYCNAKTYVFYRLRSYYYWGQGTQVTVSS | high polyreactivity
39 | QVQLVESGGGLVQAGGSLRLSCAASGFTFNVNAMGWYRQAPGKERELVATITWSDGSTRYADSVKGRFTISRDNAKNTVYLQMNSLKPEDTAVYYCAAESSECTSGDYDYWGQCTQVTVSS | low polyreactivity
40 | QVQLVESGGGLVQAGGSLRLSCAASGFTFNYYAMGGYRPAPGKERELVAAISTGGSTYYADSVKGRFTFSRDNAKNTVYLQMISLKPEDTAVYYCNAKPRYRKADRLDYWGQGTQVTVSS | high polyreactivity
41 | QVQLVESGGGLVQAGGSLRLSCAASGFTFPDYAMGWYRQAPGKEREMVAAISSDGSTYYADSVKGRFTISRDNAKNTVYLQMNSLKPEDTAVYYCAAYVVWLYGYDYWGQGTLVTVSS | low polyreactivity
42 | QVQLVESGGGLVQAGGSLRLSCAASGFTFPENAMGWYRQAPGKERELVAAISYRGASTFYADSVKGRFTISRDNAKNTVYLQMNSLKPEDTAVYYCATDPRIRYQGNPYDYWGQGTKVTVSS | high polyreactivity
43 | QVQLVESGGGLVQAGGSLRLSCAASGFTFPFYAMGWYRQAPGKERELVAPISRSGTRTYYADSVKGRFTISRDNAKNTVYLQMNSLKPEDTAVYYCAAAYHNGYLSEGYWEHYYWGQGTQVTVSS | high polyreactivity
